Here are results for three substances from publication PMC11407386, “Streptococcus suis 5’-nucleotidases contribute to adenosine-mediated immune evasion and virulence in a mouse model” (Virulence, 2024).

Usually Km stands for the concentration of substrate that gives half-maximal velocity.

For the data set, the system named is Nc1ncnc2c1ncn2[C@@H]1O[C@H](COP(=O)(O)O)[C@@H](O)[C@H]1O. The data set is described as follows: purified protein. To be noted: 50 mM Tris-HCl, 5 mM MnCl2, pH 7.5, 37°C, 0.05 µM enzyme.

Turning to SntA (Streptococcus suis BM407), where the note is “0-500 µM AMP”, the Km was 13.67 µM.
On to SntC (Streptococcus suis BM407), for which the Km (0-500 µM AMP) stood at 83.7 µM.
As to SntD (Streptococcus suis BM407), under “0-2000 µM AMP”, the Km was 412.1 µM.
